Measurements: US7462695B2, “Insect chymotrypsin and inhibitors thereof” (Hexima Limited, priority 2003, dated 2008)

Legend:
[1] = molecular target: NaPI-insensitive chymotrypsins from H. punctigera (Helicoverpa punctigera, UniProt A0PGE0); experiment: Inhibition of NaPI-insensitive chymotrypsin (gut extract depleted of trypsins and NaPI-sensitive chymotrypsins); assay type: biochemical; settings: pH 10, 30 min preincubation at 30° C.
Protocol: The midgut was dissected from 100 fourth instar larvae and buffer soluble extracts were prepared. The gut extract was depleted of NaPI-sensitive proteases by passage through an affinity column composed of immobilized NAPI protein (C1, C2, T1-T4). […] This preparation of unbound material was used to study the pH optimum, substrate preference and effect of a range of proteinase inhibitors on the activity of the NaPI-insensitive proteinase. […] The best substrate for enzyme assays was determined using seven different commercial substrates.
(§1) Several proteinase inhibitors were tested for their ability to inhibit the activity of the insensitive chymotrypsins. The buffer used for all assays was 500 mM CAPS, 75 mM NaCl, 2.5 mM MgCl2 at pH 10.

bovine chymotrypsin = bovine chymotrypsin (Bos taurus, UniProt P00766); experiment: Inhibition of bovine chymotrypsin; assay type: biochemical; settings: 100 ng bovine chymotrypsin, pH 10
Protocol: as §1

[2] = system: chymotrypsin activity in unfractionated gut extracts from H. punctigera; experiment: Chymotrypsin activity in unfractionated gut extracts with proteinase inhibitors (FIG. 3); assay type: biochemical, Helicoverpa punctigera; settings: larvae raised on haricot bean diet without added proteinase inhibitors; substrate SAAPFpNA
Protocol: FIG. 3 is a graphical representation showing the effect of various proteinase inhibitors on the chymotrypsin activity in unfractionated gut extracts from H. punctigera. Proteinase inhibitors were mixed with 1 μg of protein from an unfractionated gut extract before incubation with the chymotrypsin substrate N-succinyl-Ala-Ala-Pro-Phe-p-nitroanilide. Inhibition is expressed as a percentage of the total activity in the control samples.
Fourth-instar larvae were killed using ethyl-acetate prior the removal of individual gut which were then homogenized in a mortar and pestle in an equal amount [(w/v)] of 50 mM Tris-HCl, pH 8.0 containing 100 μM benzamidine. Insoluble material was removed by centrifugation at 20,000 rpm for 15 min at 4° C. and total protein concentration determined using the Bradford method (Bradford, Anal Biochem 72: 248-254, 1976) with reagents from BioRad and BSA as a standard.
Unfractionated gut extract containing approximately 1 μg of buffer soluble protein was added to 10 μL CAPS buffer (0.5 M, 3-[cyclohexylamino]-1-propane-sulfonic acid, pH 10) and made to a final volume of 100 μL in individual wells of a 96 well microtiter plate. Proteinase inhibitors were added over a range of concentrations and incubated for 15 min at 25° C. Bovine chymotrypsin (100 ng) was used as a positive control, both for activity and inhibition. The chromogenic artificial substrate SAAPFpNA (N-Succinyl-L-alanyl-L-alanyl-L-prolyl-L-phenylalanine 4-nitroanilide) was then added to a final concentration of 1 mM and hydrolysis of the substrate was measured at 405 nm using the SpectraMax 250 microtiter plate reader (Molecular Devices).

[3] = system: trypsin activity in gut extracts; settings: in vitro, cited from earlier work
[4] = system: chymotrypsin from the gut of H. zea larvae; settings: cited from earlier work
[5] = system: Agrotis ipsilon (black cutworm); settings: after exposure in the diet; cited from earlier work
[6] = at maximum concentration tested

Chain of NaPI-insensitive chymotrypsins from H. punctigera (A0PGE0 entry or part of it): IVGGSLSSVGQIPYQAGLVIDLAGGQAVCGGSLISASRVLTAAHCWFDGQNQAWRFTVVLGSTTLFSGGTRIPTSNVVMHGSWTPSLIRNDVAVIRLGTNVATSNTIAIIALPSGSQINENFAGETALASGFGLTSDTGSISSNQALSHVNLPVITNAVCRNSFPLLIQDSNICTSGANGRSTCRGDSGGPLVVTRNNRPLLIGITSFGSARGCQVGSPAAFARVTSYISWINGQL

B1: SBTI: soybean trypsin inhibitor (protein, UniProt P01070 25-205, looked up)
Trypsin inhibitor A: DFVLDNEGNPLENGGTYYILSDITAFGGIRAAPTGNERCPLTVVQSRNELDKGIGTIISSPYRIRFIAEGHPLSLKFDSFAVIMLCVGIPTEWSVVEDLPEGPAVKIGENKDAMDGWFRLERVSDDEFNNYKLVFCPQQAEDDKCGDIGISIDHDDGTRRLVVSKNKPLVVQFQKLDKESL
In the case of B1, the “% Inhibition Insensitive” value [1, 6] is reported as 82%, the IC50 [1] is reported as 33 µM and the IC50 (bovine chymotrypsin) is reported as 13 µM. The “% Inhibition BC” value (bovine chymotrypsin; [6]) was 94%, the “inhibition of gut chymotrypsin activity (in words)” value [2] was “failed to abolish all the chymotrysin activity” and the “inhibition of gut trypsin activity in larvae that had consumed SBTI” value ([3]; 48 h on diet with 1% SBTI) was 3%. For the same molecule, the “inhibition of trypsin activity in gut extracts from control larvae” value [3] was 74%, the “inhibition of chymotrypsin activity from the gut of insects with prior exposure to SBTI in the diet” value [4] was 35% and the “inhibition of chymotrypsin from the gut of control insects” value [4] was 95%. For the same molecule, the “reduction in total gut proteolytic activity” value [5] was ≤ 70%.
